# Test results published in PMC9482650, “Quantitative fragmentomics allow affinity mapping of interactomes” (Nature Communications, 2022).
# Biological target: GRIP2_3, Q9C0E4
# Experiment: holdup assay
# Set-up: key: below the threshold = too weak to quantify, mostly under pKd 3.1 to 4
# Details: plain residues with an end cap or a label only (N-terminal biotin on a linker: ado-ado)
# GRIP2_3, Q9C0E4, sequence (Q9C0E4 238-339): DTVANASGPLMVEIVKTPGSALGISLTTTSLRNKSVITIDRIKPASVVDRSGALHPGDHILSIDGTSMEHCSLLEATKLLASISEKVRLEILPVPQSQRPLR
row,Binder,pKd
1,"NSTHNLKDYV [CLDN20, P56880]",below the threshold

# Biological target: T1, GRIP1_2, Q9Y3R0
# T1 sequence (Q9Y3R0 145-248, limits assumed, looked up): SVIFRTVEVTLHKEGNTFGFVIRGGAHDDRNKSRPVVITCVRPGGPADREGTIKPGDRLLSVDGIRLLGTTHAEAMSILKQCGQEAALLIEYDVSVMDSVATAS
# Experiment: holdup assay
# Set-up: key: below the threshold = too weak to quantify, mostly under pKd 3.1 to 4
# Details: plain residues with an end cap or a label only (N-terminal biotin on a linker: ado-ado)
row,Binder,pKd
1,"NSTHNLKDYV [CLDN20, P56880]",below the threshold

# Biological target: T2, SNTA1, Q13424
# T2 sequence (Q13424 82-180, limits assumed, looked up): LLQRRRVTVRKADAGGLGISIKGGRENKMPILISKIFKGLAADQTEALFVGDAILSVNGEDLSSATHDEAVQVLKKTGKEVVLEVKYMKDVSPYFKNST
# Experiment: holdup assay
# Set-up: key: below the threshold = too weak to quantify, mostly under pKd 3.1 to 4
# Details: plain residues with an end cap or a label only (N-terminal biotin on a linker: ado-ado)
row,Binder,pKd
1,"NSTHNLKDYV [CLDN20, P56880]",below the threshold

# Biological target: PTPN3, P26045
# Experiment: holdup assay
# Set-up: key: below the threshold = too weak to quantify, mostly under pKd 3.1 to 4
# Details: plain residues with an end cap or a label only (N-terminal biotin on a linker: ado-ado)
# PTPN3, P26045, sequence (P26045 505-587): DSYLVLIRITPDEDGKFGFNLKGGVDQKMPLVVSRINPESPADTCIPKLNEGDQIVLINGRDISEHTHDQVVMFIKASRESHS
row,Binder,pKd
1,"NSTHNLKDYV [CLDN20, P56880]",below the threshold

# Biological target: T3, CARD11, Q9BXL7
# T3 sequence (Q9BXL7 662-765, limits assumed, looked up): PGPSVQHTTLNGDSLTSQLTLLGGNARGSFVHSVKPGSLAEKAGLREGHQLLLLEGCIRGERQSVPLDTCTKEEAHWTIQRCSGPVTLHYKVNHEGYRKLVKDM
# Experiment: holdup assay
# Set-up: key: below the threshold = too weak to quantify, mostly under pKd 3.1 to 4
# Details: plain residues with an end cap or a label only (N-terminal biotin on a linker: ado-ado)
row,Binder,pKd
1,"NSTHNLKDYV [CLDN20, P56880]",below the threshold

# Biological target: T4, SIPA1L2, Q9P2F8
# T4 sequence (Q9P2F8 945-1036, limits assumed, looked up): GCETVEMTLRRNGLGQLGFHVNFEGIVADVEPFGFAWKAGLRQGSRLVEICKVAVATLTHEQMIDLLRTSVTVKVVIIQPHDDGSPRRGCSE
# Experiment: holdup assay
# Set-up: key: below the threshold = too weak to quantify, mostly under pKd 3.1 to 4
# Details: plain residues with an end cap or a label only (N-terminal biotin on a linker: ado-ado)
row,Binder,pKd
1,"NSTHNLKDYV [CLDN20, P56880]",below the threshold

# Biological target: MAGI2_4, Q86UL8
# Experiment: holdup assay
# Set-up: key: below the threshold = too weak to quantify, mostly under pKd 3.1 to 4
# Details: plain residues with an end cap or a label only (N-terminal biotin on a linker: ado-ado)
# MAGI2_4, Q86UL8, sequence (Q86UL8 772-865): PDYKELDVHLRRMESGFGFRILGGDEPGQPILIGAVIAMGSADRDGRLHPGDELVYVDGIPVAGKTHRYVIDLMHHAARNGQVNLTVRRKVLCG
row,Binder,pKd
1,"NSTHNLKDYV [CLDN20, P56880]",below the threshold

# Biological target: T5, NHERF3_3, Q5T2W1
# T5 sequence (Q5T2W1 238-333, limits assumed, looked up): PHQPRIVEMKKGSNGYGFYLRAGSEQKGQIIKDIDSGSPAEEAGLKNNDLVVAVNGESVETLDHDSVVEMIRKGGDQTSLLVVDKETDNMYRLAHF
# Experiment: holdup assay
# Set-up: key: below the threshold = too weak to quantify, mostly under pKd 3.1 to 4
# Details: plain residues with an end cap or a label only (N-terminal biotin on a linker: ado-ado)
row,Binder,pKd
1,"NSTHNLKDYV [CLDN20, P56880]",below the threshold

# Biological target: LNX1_3, Q8TBB1
# Experiment: holdup assay
# Set-up: key: below the threshold = too weak to quantify, mostly under pKd 3.1 to 4
# Details: plain residues with an end cap or a label only (N-terminal biotin on a linker: ado-ado)
# LNX1_3, Q8TBB1, sequence (Q8TBB1 500-596): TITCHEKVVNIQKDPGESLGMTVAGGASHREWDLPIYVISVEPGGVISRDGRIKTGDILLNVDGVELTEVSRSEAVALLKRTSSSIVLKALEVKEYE
row,Binder,pKd
1,"NSTHNLKDYV [CLDN20, P56880]",below the threshold

# Biological target: NHERF4_2, Q86UT5
# Experiment: holdup assay
# Set-up: key: below the threshold = too weak to quantify, mostly under pKd 3.1 to 4
# Details: plain residues with an end cap or a label only (N-terminal biotin on a linker: ado-ado)
# NHERF4_2, Q86UT5, sequence (Q86UT5 220-308): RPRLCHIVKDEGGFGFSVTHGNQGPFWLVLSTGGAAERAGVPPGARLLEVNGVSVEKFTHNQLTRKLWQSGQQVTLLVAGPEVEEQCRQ
row,Binder,pKd
1,"NSTHNLKDYV [CLDN20, P56880]",below the threshold

# Biological target: SCRIB_2, Q14160
# Experiment: holdup assay
# Set-up: key: below the threshold = too weak to quantify, mostly under pKd 3.1 to 4
# Details: plain residues with an end cap or a label only (N-terminal biotin on a linker: ado-ado)
# SCRIB_2, Q14160, sequence (Q14160 857-960): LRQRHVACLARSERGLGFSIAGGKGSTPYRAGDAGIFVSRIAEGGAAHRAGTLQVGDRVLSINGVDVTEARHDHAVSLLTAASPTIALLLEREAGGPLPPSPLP
row,Binder,pKd
1,"NSTHNLKDYV [CLDN20, P56880]",below the threshold

# Biological target: T6, NHERF3_4, Q5T2W1
# T6 sequence (Q5T2W1 373-468, limits assumed, looked up): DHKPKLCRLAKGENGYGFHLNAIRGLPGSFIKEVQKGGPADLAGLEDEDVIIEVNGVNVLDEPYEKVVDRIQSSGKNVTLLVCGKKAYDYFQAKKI
# Experiment: holdup assay
# Set-up: key: below the threshold = too weak to quantify, mostly under pKd 3.1 to 4
# Details: plain residues with an end cap or a label only (N-terminal biotin on a linker: ado-ado)
row,Binder,pKd
1,"NSTHNLKDYV [CLDN20, P56880]",below the threshold

# Biological target: GOPC, Q9HD26
# Experiment: holdup assay
# Set-up: key: below the threshold = too weak to quantify, mostly under pKd 3.1 to 4
# Details: plain residues with an end cap or a label only (N-terminal biotin on a linker: ado-ado)
row,Binder,pKd
1,"NSTHNLKDYV [CLDN20, P56880]",below the threshold

# Biological target: FRMPD2_1, Q68DX3
# Experiment: holdup assay
# Set-up: key: below the threshold = too weak to quantify, mostly under pKd 3.1 to 4
# Details: plain residues with an end cap or a label only (N-terminal biotin on a linker: ado-ado)
# FRMPD2_1, Q68DX3, sequence (Q68DX3 770-861): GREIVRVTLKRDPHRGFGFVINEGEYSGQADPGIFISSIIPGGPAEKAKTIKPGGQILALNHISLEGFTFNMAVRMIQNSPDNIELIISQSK
row,Binder,pKd
1,"NSTHNLKDYV [CLDN20, P56880]",below the threshold

# Biological target: Inadl_5, Q8NI35
# Experiment: holdup assay
# Set-up: key: below the threshold = too weak to quantify, mostly under pKd 3.1 to 4
# Details: plain residues with an end cap or a label only (N-terminal biotin on a linker: ado-ado)
# Inadl_5, Q8NI35, sequence (Q8NI35 673-780): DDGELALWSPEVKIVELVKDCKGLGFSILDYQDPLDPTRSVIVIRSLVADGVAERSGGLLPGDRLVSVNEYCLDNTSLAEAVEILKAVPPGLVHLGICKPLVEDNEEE
row,Binder,pKd
1,"NSTHNLKDYV [CLDN20, P56880]",below the threshold

# Biological target: LDB3, O75112
# Experiment: holdup assay
# Set-up: key: below the threshold = too weak to quantify, mostly under pKd 3.1 to 4
# Details: plain residues with an end cap or a label only (N-terminal biotin on a linker: ado-ado)
# LDB3, O75112, sequence (O75112 1-94): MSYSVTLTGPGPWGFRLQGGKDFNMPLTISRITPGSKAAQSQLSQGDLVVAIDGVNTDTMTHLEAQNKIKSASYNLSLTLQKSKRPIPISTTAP
row,Binder,pKd
1,"NSTHNLKDYV [CLDN20, P56880]",below the threshold

# Biological target: T7, HTRA4, P83105
# T7 sequence (P83105 378-476, limits assumed, looked up): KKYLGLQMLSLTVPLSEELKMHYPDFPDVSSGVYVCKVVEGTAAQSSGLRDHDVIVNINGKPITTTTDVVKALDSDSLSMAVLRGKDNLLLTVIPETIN
# Experiment: holdup assay
# Set-up: key: below the threshold = too weak to quantify, mostly under pKd 3.1 to 4
# Details: plain residues with an end cap or a label only (N-terminal biotin on a linker: ado-ado)
row,Binder,pKd
1,"NSTHNLKDYV [CLDN20, P56880]",below the threshold

# Biological target: Inadl_6, Q8NI35
# Experiment: holdup assay
# Set-up: key: below the threshold = too weak to quantify, mostly under pKd 3.1 to 4
# Details: plain residues with an end cap or a label only (N-terminal biotin on a linker: ado-ado)
# Inadl_6, Q8NI35, sequence (Q8NI35 1058-1167): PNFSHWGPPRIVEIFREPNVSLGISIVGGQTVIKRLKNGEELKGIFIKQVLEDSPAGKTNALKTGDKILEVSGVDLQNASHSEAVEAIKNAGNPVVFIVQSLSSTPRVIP
row,Binder,pKd
1,"NSTHNLKDYV [CLDN20, P56880]",below the threshold

# Biological target: T8, SNTG1, Q9NSN8
# T8 sequence (Q9NSN8 52-150, limits assumed, looked up): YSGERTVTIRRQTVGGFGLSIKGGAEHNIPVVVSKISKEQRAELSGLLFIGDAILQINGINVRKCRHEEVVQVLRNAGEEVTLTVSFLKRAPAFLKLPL
# Experiment: holdup assay
# Set-up: key: below the threshold = too weak to quantify, mostly under pKd 3.1 to 4
# Details: plain residues with an end cap or a label only (N-terminal biotin on a linker: ado-ado)
row,Binder,pKd
1,"NSTHNLKDYV [CLDN20, P56880]",below the threshold

# Biological target: PICK1, Q9NRD5
# Experiment: holdup assay
# Set-up: key: below the threshold = too weak to quantify, mostly under pKd 3.1 to 4
# Details: plain residues with an end cap or a label only (N-terminal biotin on a linker: ado-ado)
# PICK1, Q9NRD5, sequence (Q9NRD5 17-115): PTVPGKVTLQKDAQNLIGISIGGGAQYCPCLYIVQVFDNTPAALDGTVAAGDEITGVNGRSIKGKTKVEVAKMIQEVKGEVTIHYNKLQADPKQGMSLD
row,Binder,pKd
1,"NSTHNLKDYV [CLDN20, P56880]",below the threshold

# Biological target: GRIP2_4, Q9C0E4
# Experiment: holdup assay
# Set-up: key: below the threshold = too weak to quantify, mostly under pKd 3.1 to 4
# Details: plain residues with an end cap or a label only (N-terminal biotin on a linker: ado-ado)
# GRIP2_4, Q9C0E4, sequence (Q9C0E4 446-548): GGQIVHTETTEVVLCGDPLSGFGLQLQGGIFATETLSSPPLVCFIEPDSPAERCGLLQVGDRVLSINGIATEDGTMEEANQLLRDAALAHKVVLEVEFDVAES
row,Binder,pKd
1,"NSTHNLKDYV [CLDN20, P56880]",below the threshold

# Biological target: DLG2_2, Q15700
# Experiment: holdup assay
# Set-up: key: below the threshold = too weak to quantify, mostly under pKd 3.1 to 4
# Details: plain residues with an end cap or a label only (N-terminal biotin on a linker: ado-ado)
# DLG2_2, Q15700, sequence (Q15700 189-283): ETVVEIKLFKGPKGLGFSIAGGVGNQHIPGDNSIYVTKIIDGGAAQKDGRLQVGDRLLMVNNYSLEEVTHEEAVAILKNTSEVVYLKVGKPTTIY
row,Binder,pKd
1,"NSTHNLKDYV [CLDN20, P56880]",below the threshold

# Biological target: T9, PDZD2_2, O15018
# T9 sequence (O15018 329-429, limits assumed, looked up): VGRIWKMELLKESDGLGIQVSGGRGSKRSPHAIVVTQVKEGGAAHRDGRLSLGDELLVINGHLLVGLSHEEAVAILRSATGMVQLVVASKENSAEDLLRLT
# Experiment: holdup assay
# Set-up: key: below the threshold = too weak to quantify, mostly under pKd 3.1 to 4
# Details: plain residues with an end cap or a label only (N-terminal biotin on a linker: ado-ado)
row,Binder,pKd
1,"NSTHNLKDYV [CLDN20, P56880]",4.56

# Biological target: CASK, O14936
# Experiment: holdup assay
# Set-up: key: below the threshold = too weak to quantify, mostly under pKd 3.1 to 4
# Details: plain residues with an end cap or a label only (N-terminal biotin on a linker: ado-ado)
# CASK, O14936, sequence (O14936 487-570): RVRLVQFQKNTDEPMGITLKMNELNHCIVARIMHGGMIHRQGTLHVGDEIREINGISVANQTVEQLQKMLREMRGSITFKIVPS
row,Binder,pKd
1,"NSTHNLKDYV [CLDN20, P56880]",below the threshold

# Biological target: MAGI2_3, Q86UL8
# Experiment: holdup assay
# Set-up: key: below the threshold = too weak to quantify, mostly under pKd 3.1 to 4
# Details: plain residues with an end cap or a label only (N-terminal biotin on a linker: ado-ado)
# MAGI2_3, Q86UL8, sequence (Q86UL8 600-682): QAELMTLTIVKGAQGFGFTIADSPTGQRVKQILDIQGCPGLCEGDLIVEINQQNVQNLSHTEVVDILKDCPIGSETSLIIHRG
row,Binder,pKd
1,"NSTHNLKDYV [CLDN20, P56880]",below the threshold

# Biological target: T10, TJP3_3, O95049
# T10 sequence (O95049 375-456, limits assumed, looked up): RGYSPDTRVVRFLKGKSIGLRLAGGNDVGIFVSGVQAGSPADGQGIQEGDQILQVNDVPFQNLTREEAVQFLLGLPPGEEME
# Experiment: holdup assay
# Set-up: key: below the threshold = too weak to quantify, mostly under pKd 3.1 to 4
# Details: plain residues with an end cap or a label only (N-terminal biotin on a linker: ado-ado)
row,Binder,pKd
1,"NSTHNLKDYV [CLDN20, P56880]",below the threshold

# Biological target: MAGI2_5, Q86UL8
# Experiment: holdup assay
# Set-up: key: below the threshold = too weak to quantify, mostly under pKd 3.1 to 4
# Details: plain residues with an end cap or a label only (N-terminal biotin on a linker: ado-ado)
# MAGI2_5, Q86UL8, sequence (Q86UL8 915-1017): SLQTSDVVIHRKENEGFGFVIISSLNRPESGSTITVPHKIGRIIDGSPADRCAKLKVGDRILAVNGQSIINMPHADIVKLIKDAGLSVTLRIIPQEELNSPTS
row,Binder,pKd
1,"NSTHNLKDYV [CLDN20, P56880]",below the threshold

# Biological target: HTRA1, Q92743
# Experiment: holdup assay
# Set-up: key: below the threshold = too weak to quantify, mostly under pKd 3.1 to 4
# Details: plain residues with an end cap or a label only (N-terminal biotin on a linker: ado-ado)
# HTRA1, Q92743, sequence (Q92743 360-477): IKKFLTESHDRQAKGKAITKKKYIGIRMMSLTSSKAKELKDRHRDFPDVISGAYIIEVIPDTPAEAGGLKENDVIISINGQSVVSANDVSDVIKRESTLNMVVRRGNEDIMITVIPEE
row,Binder,pKd
1,"NSTHNLKDYV [CLDN20, P56880]",3.64

# Biological target: MAST1, Q9Y2H9
# Experiment: holdup assay
# Set-up: key: below the threshold = too weak to quantify, mostly under pKd 3.1 to 4
# Details: plain residues with an end cap or a label only (N-terminal biotin on a linker: ado-ado)
# MAST1, Q9Y2H9, sequence (Q9Y2H9 962-1065): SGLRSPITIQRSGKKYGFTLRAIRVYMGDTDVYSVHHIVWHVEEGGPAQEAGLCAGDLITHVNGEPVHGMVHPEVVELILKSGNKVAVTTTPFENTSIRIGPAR
row,Binder,pKd
1,"NSTHNLKDYV [CLDN20, P56880]",3.65
